Test results taken from patent US20240360224A1 (ORIONIS BIOSCIENCES, published 2024).
Numbering of substitutions follows the chain as printed.

B1: 1LEC 9 (VHH)
VHH: QVQLQESGGGLVQAGGSLRLSCAASGSITSINAMGWYRQAPGKQRELVAAITSGGRLSYADSVKGRFTISRDNAESTVALQMNSLKPEDTAVYSCAAFQSSGIDWGQGTQVTVSS
notes: Entry includes C-terminal AAA-HA-His6 (pMECS)
B2: 2LEC 23 (VHH)
VHH: QVQLQESGGGLVQPGGSLRLSCAASGTSFSINGMAWYRQAPGGQRELVGGITSDGSTGYADSVKGRFTVSRDNAKNTVYLQMNRLKPEDTAVYYCGTSTPRGDSYWGQGTQVTVSS
notes: as for B1
B3: 2LEC 48 (VHH)
VHH: B2 VHH with P14A, S28L, G43K, Q44R, V69I, V78A, R84S
notes: as for B1
B4: 2LEC 90 (VHH)
VHH: QVQLQESGGGLVQTGGSLRLSCAASGSIFSFNAMGWYRQAPGKQRELVAAITDGGRLTYADSAKGRFTISRENTRNTVHLQMSSLKAEDTADYYCTIWTRDRQQYWGQGTQVTVSS
notes: as for B1
B5: 2LEC 26 (VHH)
VHH: B4 VHH with Q13E, F31I, G54Q, T58A, T74A, V78L, D92V, T99D
notes: as for B1
B6: 3LEC 30 (VHH)
VHH: QVQLQESGGGLVQTGGSLRLSCAASGSIFSINSMGWYRQAPGKQRELVAAITSQGRSTYADSAKGRFTISLGNARNTVNLQMSSLKTEDTAVYYCTIWARDRQQYWGQGTQVTVSS
notes: as for B1
B7: 3LEC 55 (VHH)
VHH: B4 VHH with T14P, R19K, G65N, D92V, R100K
notes: as for B1
B8: 2LEC 54 (VHH)
VHH: QVQLQESGGGLAQPGGSLQLSCAASGRAFSTNSMGWYRQASGKQRELVAAITSQGRITLADSVKGRFTISSDNTKNTVFLQMNSLKPEDTAVYYCNAWTTLGTFGGQGTQVTVSS
notes: as for B1
B9: 2LEC 55 (VHH)
VHH: QVQLQESGGGLVQTGESLSLSCAVASGSIISINSMGWYRQAPEKQRELVAAITVDGRLAYADSAKHRFTISKESARNTVHLHMSSLKPEDTAVYYCTIWVRDGQQYWGQGTQVTVSS
notes: as for B1
B10: 2LEC 60 (VHH)
VHH: QVQLQESGGGLVQPGGSLRLSCAASGRFFRVNAMGWYRQVPGKQRELVAAITNGGQIAYADSVKGRFTISRDSAKNTVYLQMNSLKSEDTDVYYCNAKAAATHLSTVADYWGQGTQVTVSS
notes: as for B1
B11: 3LEC 13 (VHH)
VHH: B10 VHH with V40A, A58V, D91A, T102S, H103Y, L104V
notes: as for B1
B12: 1LEC 26 (VHH)
VHH: QVQLQESGGGLVQPGGSLRLSCAASGRFFRVNAMGWYRQAPGKQRELVAAITNGGQTAYADSVKGRFTISKESARNTVHLQMSSLKPEDTAVYYCTIWAADYQQYWGQGTQVTVSS
notes: as for B1
B13: 2LEC 61 (VHH)
VHH: QVQLQESGGGLVQPGGSLRLSCAASGSIVSINSMGWYRQAPGKQRELVAAITDQGRTTYADSVKGRFTISRDDAKNKNTVYLQMNSLKAEDTAVYACKAFGRFDDYWGQGTQVTVSS
notes: as for B1
B14: 2LEC 62 (VHH)
VHH: QVQLQESGGGLVQPGGSLRLSCAAYGSIFSINAMGWYRQAPGKERELVAGITTQGRITYGNSVRGRFTISGDNAKNTVYLQMKSLKPEDTAVYYCSAWGVKTGPESGSGTLEGQGTQVTVSS
notes: as for B1
B15: 2LEC 67 (VHH)
VHH: QVQLQESGGGLVQAGGSLRLSCAASGRTFPGYVMAWFRQSPGQEREFAAAINWRGGDTYYADSVKGRFTISRDNVKNTVFLQMNSLKPEDTAVYFCAARLTTEYDYAYWGQGTQVTVSS
notes: as for B1
B16: 2LEC 76 (VHH)
VHH: QVQLQESGGGLVQAGESLRLSCVVSGRTFSINAMGWYRQAPGKQRELVAAITNQGRLSYVDSVKGRFTISRDNAANTVYLQMNSLKPEDTAVYYCAAFQSSGIDWGQGTQVTVSS
notes: as for B1
B17: 2LEC 83 (VHH)
VHH: QVQLQESGGGLVQAGGSLRLSCAASGRTLSSYTIGWYRQAPGKQRELVAAITNQGRRTYADSVKGRFTISRDNAKNTVYLQMDSLKSEDTAVYYCKGFSPTDDFWGQGTQVTVSS
notes: as for B1
B18: 2LEC 88 (VHH)
VHH: QVQLQESGGGLVQPGGSLRLSCTASGSFFSINAMGWYRQAPGNQRELVAAITNGGRIAYTDSVKGRFTISNDNAKNTVYLQMNSLKPEDTDVYYCNAKAIPIYGSTAEDYWGQGTQVTVSS
notes: as for B1
B19: 2LEC 89 (VHH)
VHH: QVQLQESGGGLVQAGGSLRLSCAASGSIFSINSMGWYRQAPGKQRELVAAITNGGRTTYADSVKGRFTISRDNAKNTVYLQMDSLKPEDTAVYYCKGFSLTDDYWGQGTQVTVSS
notes: as for B1
B20: 1LEC 27 (VHH)
VHH: QVQLQESGGGLVQAGESLRLSCAASGSSDSINAMGWYRQAPGKQRELVAAITSGGRSTYIDSAKGRATISRDNARNTAYLQMSSLKAEDTAVYYCTIWNRDRQQYWGQGTQVTVSS
notes: as for B1
B21: 2LEC 95 (VHH)
VHH: QVQLQESGGGLVQAGGSLRLSCEASGRTFSTYAMAWFRQAPGKERDLVAAISWSGGSTEYHDSVKGRFTISRDNTKNTVYLQMNSLKAEDTAVYYCAAEVEGSGREGNFYGASWYPGQGTQVTVSS
notes: Entry includes C-terminal AAA-HA-His tag (pMECS); only five His are printed in the text
B22: 3LEC 4 (VHH)
VHH: QVQLQESGGGLVQPGGSLRLSCAASGSFFSINAMGWYRQAPGKQRELVAAITNQGRIAYADSVKGRFTISRDNAKNTVYLQMNSLKPEDTAVYYCGRPGWDYWGQGTQVTVSS
notes: as for B1
B23: 3LEC 27 (VHH)
VHH: QVQLQESGGGLVQAGGSLRLSCAASVNIGTLNSMAWYREAPGKQRELVAGITGGGQITYANSVRGRFTVSRDIAKSTAYLQMNTLKPEDTAVYYCAAYDRSATPYWGQGTQVTVSS
notes: as for B1
B24: 1LEC 51 (VHH)
VHH: B23 VHH with G29D, E39Q, G54S, I73N, A78V, K86Q, A102S
notes: as for B1
B25: 3LEC 6 (VHH)
VHH: B23 VHH with A23V, T30S, A35V, E39Q, A40S, G54S, P104A
notes: as for B1
B26: 3LEC 9 (VHH)
VHH: QVQLQESGGGLVQAGGSLRVSCAASGRTLSNYAVGWWRQAPGKQREFVAAINWSSGGISYSNSAKGRFALSRDNAKNTVYLQMDSLKPEDTAVYYCAAASSVLSGTVDYWGQGTQVTVSS
notes: as for B1
B27: 3LEC 61 (VHH)
VHH: B26 VHH with G35A, W37F, S63A, V102I
notes: as for B1

Molecular target: T1, human Clec9A (human, UniProt Q6UXN8 1-241)
T1 construct: Expressed on transfected CHO-K1, HEK293-T and HL116 cells, or native on human dendritic cells; also called hClec9A; C-type lectin domain family 9 member A
T1 sequence (Q6UXN8 whole entry, the tested form may be a part): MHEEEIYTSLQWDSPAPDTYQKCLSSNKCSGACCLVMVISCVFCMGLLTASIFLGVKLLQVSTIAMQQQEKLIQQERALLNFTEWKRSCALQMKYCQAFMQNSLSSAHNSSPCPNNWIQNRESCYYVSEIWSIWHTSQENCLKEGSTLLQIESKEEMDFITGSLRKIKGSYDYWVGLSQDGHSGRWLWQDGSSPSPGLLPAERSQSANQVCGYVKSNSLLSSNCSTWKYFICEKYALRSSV
Experiment: flow cytometry on HEK293-T cells transfected with human Clec9A; His-tagged VHH at 2 µg/ml, anti-His FITC antibody; single concentration
Method: The binding characteristics of various VHHs (as described in Example 1) were tested by flow cytometry. HEK293-T cells were transfected with a human Clec9A expression plasmid and stained with the His-tagged VHHs at 2 μg/ml, followed by staining with an anti-His Fitc conjugated antibody. Binding was measured by detecting cellular fluorescence via flow cytometry.

Binder	binding result
B1	binds
B2	binds
B3	binds
B4	binds
B5	binds
B6	binds
B7	binds
B8	binds
B9	binds
B10	binds
B11	binds
B12	binds
B13	binds
B14	binds
B15	binds
B16	binds
B17	binds
B18	binds
B19	binds
B20	binds
B21	binds
B22	binds
B23	binds
B24	binds
B25	binds
B26	binds
B27	binds
